In patent US20220281965A1 (AstraZeneca / MedImmune, published 2022):
Positions count from the first letter of the chain named. Blank lines part the entries; values can stand above or below the binder they belong to.

Key:
[1] = target: T1, biotinylated human H202D GDF-15 variant (human, UniProt Q99988 197-308, biotinylated, sites not stated); assay: HTRF binding assay, biotinylated antigen, titration of antibody
T1 construct: also called Human GDF-15 H202D
T1 chain: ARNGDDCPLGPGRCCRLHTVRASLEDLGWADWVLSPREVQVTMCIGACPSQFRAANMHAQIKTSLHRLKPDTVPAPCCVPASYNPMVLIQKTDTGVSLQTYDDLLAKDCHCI
Excerpt: (§1) Supernatants generated from the immunizations with human GDF-15 and purified IgGs were screened to identify IgGs with specific binding to human, cynomolgus, or mouse GDF-15. The HTRF (Homogeneous Time Resolved Fluorescence) assay is based on detection of a measurable FRET signal upon binding of a titration of test antibody to biotinylated human H202D GDF-15 variant, cynomolgus GDF-15 and mouse GDF-15. Europium cryptate (EuK) labelled Streptavidin and anti-human IgG XL665 (Cis Bio) were used as secondary detection reagents serving as energy donor and acceptor respectively. In the absence of test antibody binding, there is no detectable FRET fluorescence. When test antibody binds to GDF-15, the resulting physical proximity between the secondary reagent donor/acceptor pair results in FRET. FRET was measured ratiometrically [665 nm (acceptor)/620 nm (donor)] on an Envision plate reader, and data plotted using PRISM 6® software (Graphpad).

mouse GDF-15 = target: T2, mouse GDF-15 (mouse, UniProt Q9Z0J7 189-303); assay: as above
T2 construct: also called mGDF-15
T2 sequence: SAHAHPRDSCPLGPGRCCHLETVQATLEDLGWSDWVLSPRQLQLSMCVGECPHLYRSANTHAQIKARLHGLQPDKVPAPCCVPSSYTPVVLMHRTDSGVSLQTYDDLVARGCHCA
Excerpt: as §1

[2] = target: T3, biotinylated cynomolgus GDF-15 (cynomolgus, UniProt G7PWZ3 197-308, biotinylated, sites not stated); assay: as above
T3 construct: also called Cyno GDF-15
T3 sequence: T1 chain with D6R, R21H, A54E, T63M, S64N, I112V
Excerpt: as §1

mature human GDF-15 = target: T4, mature human GDF-15 (human, UniProt Q99988 197-308); assay: HTRF epitope competition; competitor DyLight 650 labelled Antibody A; Europium labelled human GDF-15
T4 construct: Homodimer; also called hGDF-15; recombinant hu-GDF15
T4 sequence: T1 chain with D6H
Excerpt: Antibodies from the immunizations with human GDF-15, in the form of crude supernatants from the immunization or in the form of purified IgGs, were chosen on the basis that they bind and compete with an epitope recognized by a control anti-GDF-15 antibody “Antibody A”. A biochemical epitope competition format was applied using an HTRF epitope competition assay that measured the binding of DyLight 650 labelled Antibody A to Europium labelled human GDF-15 (Prospec). In the absence of Antibody A binding, there is no detectable FRET fluorescence. When Antibody A binds to GDF-15, the resulting physical proximity between the secondary reagent donor/acceptor pair results in FRET. Competition with an antibody that recognizes the same or similar epitope will result in a dose dependent reduction of the FRET signal. FRET was measured ratiometrically [665 nm (acceptor)/620 nm (donor)] on an Envision plate reader, and IC₅₀ values were determined by curve fitting the data to a four parameter logistic equation using PRISM 6® software (Graphpad).

[3] = target: T5, human BMP7 (R&D Systems 354-BP/CF) (human, UniProt P18075 293-431); assay: antigen presentation ELISA: human BMP7 adsorbed on a Nunc Maxisorp plate, titration of IgG, anti-human IgG-HRP, TMB, absorbance at 450 nm
T5 construct: Bought protein, adsorbed on the ELISA plate
T5 sequence (looked up): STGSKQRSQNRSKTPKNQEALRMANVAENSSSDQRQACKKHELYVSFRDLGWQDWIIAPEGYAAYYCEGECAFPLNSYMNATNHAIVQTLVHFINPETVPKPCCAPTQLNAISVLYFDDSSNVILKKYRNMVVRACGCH
Experimental: (§2) Purified humanized IgGs were screened for binding to human GDF-15 over two further members of the same family, TGFβ1 (R&D Systems 240-B) and BMP7 (R&D Systems 354-BP/CF), using a standard antigen presentation ELISA. Human GDF-15, human TGFβ1 or human BMP7 were adsorbed onto a Nunc Maxisorp™ plate. After removal of excess unbound antigen, a titration of test IgG was added to the plate. After a 1-hour incubation, the unbound IgG was removed. The extent of IgG binding was determined by addition of an anti-human IgG antibody conjugated to the horseradish peroxidase (HRP) enzyme and measuring the optical absorbance at 450 nm of the product of its reaction with the substrate TMB.

[4] = target: T6, human TGFβ1 (R&D Systems 240-B) (human, UniProt P01137 279-390); assay: antigen presentation ELISA: human TGFβ1 adsorbed on a Nunc Maxisorp plate, titration of IgG, anti-human IgG-HRP, TMB, absorbance at 450 nm
T6 construct: Bought protein, adsorbed on the ELISA plate
T6 sequence (P01137 279-390 limits assumed): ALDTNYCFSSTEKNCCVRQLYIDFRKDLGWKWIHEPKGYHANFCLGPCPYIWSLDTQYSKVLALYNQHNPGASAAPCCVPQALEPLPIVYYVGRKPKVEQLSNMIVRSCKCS
Experimental: as §2

binding result [1]: binds
binding result (mouse GDF-15): binds
binding result [2]: binds
IC50 (mature human GDF-15): 1.36 nM
B1: AB1170047 (antibody, V domains shown)
VH: QVQLQQSGPELVKPGASVKLSCKASGYTFTSYDINWVKQRPGQGLEWIGWIYPRDGISKYNEKFKGKATLTVDTSSSTAYMELHSLTSEDSAVYFCAGTYDPAYFDYWGQGTTLTVSS
VL: DIVLTQSPATLSVTPGDRVSLSCRASQSISYYLHWYQQKSHESPRLLIKYASQSISGIPSRFSGSGSGTDFTLSINSVETEDFGMYFCQQSNSWPYTFGGGTKLEIK

binding result [1]: binds
binding result (mouse GDF-15): binds
binding result [2]: binds
IC50 (mature human GDF-15): 0.759 nM
B2: AB1170069 (antibody, V domains shown)
VH: B1 VH with K65E, Y100S
VL: B1 VL

binding result [3]: no binding (tested: 5 µg/mL)
IC50 (mature human GDF-15): 0.212 nM
binding result [4]: no binding (tested: 5 µg/mL)
B3: AB1170241 (antibody, IgG1, V domains shown)
VH: QVQLVQSGSELKKPGASVKVSCKASGYTFTDYNMDWIRQSPGKGLEWIGDINPNQGGTFYNQKFKDRATLTVDKSTSTAYMELRSLRSDDTAVYYCAREEKLYFGLMDYWGQGTTVTVSS
VL: DIQMTQSPSSLSASVGDRVTITCRASENIYSYLAWYQQKPGKAPKLLVYNAKTLAEGVPSRFSGSGSGIDFTLTISSLQPEDFATYYCQHQYGSPPTFGQGTKLEIK
notes: Humanized IgG1 TM; Made from AB1170243 by changing NNG to NQG in heavy chain CDR2; not shown: human immunoglobulin kappa light chain constant domain

binding result [1]: binds
binding result (mouse GDF-15): binds
binding result [2]: binds
IC50 (mature human GDF-15): 0.485 nM
B4: AB1170028 (antibody, V domains shown)
VH: DVKLVESGEGLVKPGGSLKLSCAASGFTFSSFAMSWVRQTPEKRLEWVAYITSGGDYIFYADTVKGRFTISRDNARNTLYLQMSSLKSEDTAMYYCTRDDGYLWFAYWGQGTLVTVSA
VL: SIVMTQTPKFLPVSAGDRVTMTCKASQNVGNNVAWYQQKPGQSPKLLIYYASNRYTGVPDRFTGSGSGTDFTFTISSVQVEDLAVYFCQQHYSSPLTFGAGTKLELK

binding result [1]: binds
binding result (mouse GDF-15): binds
binding result [2]: binds
IC50 (mature human GDF-15): 1.95 nM
B5: AB1170043 (antibody, V domains shown)
VH: QVTLKESGPGILQSSQTLSLTCSFSGFSLITSGLGVSWIRQPSGKGLEWLAHIYWDDDKRYNPSLKSRLTISKDTSRNQVFLKITSVDTADTATYYCARGGYDGYYDYWGQGTTLTVSS
VL: DVVMTQTPLSLPVSLGDQASISCRSSQSIVHSNGNTNLEWYLQKPGQSPKLLIYKVSNRLSGVPDRFSGSGSGTDFTLKISRVEAEDLGVYYCFQGSHVRTFGGGTKLEIK

binding result [1]: binds
binding result (mouse GDF-15): binds
binding result [2]: binds
IC50 (mature human GDF-15): 1.11 nM
B6: AB1170086 (antibody, V domains shown)
VH: B5 VH with I30S, L34M, K66E, A90T
VL: B5 VL with F76S

binding result [1]: binds
binding result (mouse GDF-15): binds
binding result [2]: binds
IC50 (mature human GDF-15): 6.83 nM
B7: AB1170070 (antibody, V domains shown)
VH: EVQLQQSGPELVKPGASVKIPCKASGYTFTDYNMDWVKQSHGKSLEWIGDINPYNGITIYNQKFKGKATLTVDKSSSTAYMELRSLTSEDTAVYYCAREEKLGTSFDYWGQGTTLTVSS
VL: DIQMTQSPASLSASVGETVTITCRASENIYSNLAWYQQKQGKSPQLLVYAATNLADGVPSRFSGSGSGTQFSLKINSLQPEDFGSYYCQHFYGTPWTFGGGTKLEIK

binding result [1]: binds
binding result (mouse GDF-15): binds
binding result [2]: binds
IC50 (mature human GDF-15): 97.1 nM
B8: AB1170006 (antibody, V domains shown)
VH: B7 VH with Y54N, I57V, Y94F, K101L, L102T, T104N, S105A, F106M, T114S, L115V
VL: B7 VL with A13V, N32H, F71Y, P80S, Y92W

binding result [1]: binds
binding result (mouse GDF-15): binds
binding result [2]: binds
IC50 (mature human GDF-15): 0.622 nM
B9: AB1170036 (antibody, V domains shown)
VH: DVKLVESGEGLVKPGGSLKLSCAASGFTFSSYAMSWVRQTPEKRLEWVAYISSGGDNIYYADTVKGRFTISRDNARNTLYLQMSSLKSEDTAMYYCTRALVENAYFDYWGQGTTLTVSS
VL: DSVLTQSPASLLVSLGQRATISCRASKSVSTSTYSYMHWYQQKPGQPPKLLIKYASYLESGVPARFSGSGSGTDFTLNIHPVEEEDAATYYCQHSREFPWTFGGGTKLEIK

binding result [1]: binds
binding result (mouse GDF-15): binds
binding result [2]: binds
IC50 (mature human GDF-15): 1.42 nM
B10: AB1170040 (antibody, V domains shown)
VH: B9 VH with N57Y, E102D
VL: B9 VL with S2I, L12A, T33S, S60F

binding result [1]: binds
binding result (mouse GDF-15): binds
binding result [2]: binds
IC50 (mature human GDF-15): 0.693 nM
B11: AB1170072 (antibody, V domains shown)
VH: QVTLKESGPGILQPSQTLSLTCSFSGFSLSTYGMGVGWIRQPSGKGLEWLANIWWNDDKYYNSALKSRLTISKDTSNNQVFLKISSVDTADTATYYCAQMAYSWFAYWGQGTLVTVSS
VL: DIVMTQSQKFMSTSVGDRVSVTCKASQNMDTNVAWYQQKPGQSPKALIYSASYRYSGVPDRFTGSGSGTDFTLTISNVQSEDLAEYFCQQYNSYPFTFGSGTKLEIK

binding result [1]: binds
binding result (mouse GDF-15): binds
binding result [2]: binds
IC50 (mature human GDF-15): 2.11 nM
B12: AB1170073 (antibody, V domains shown)
VH: QVTLKESGPGILQPSQTLSLTCSFSGFSLSTFGMGVGWIRQPSGKGLEWLAHIWWDDDKYYNPALKSRLTISKDTSKNQVFLKIANVDTADTATYYCARIAYDGYLDYWGQGTTLTVSS
VL: B11 VL with M29V, D30G, N32D, A46S, F96Y, S100G

binding result [1]: binds
binding result (mouse GDF-15): binds
binding result [2]: binds
IC50 (mature human GDF-15): 68.3 nM
B13: AB1170148 (antibody, V domains shown)
VH: QVQLQQPGAELVRPGTSVKLSCKASGYTFTSYWMHWVKQRPRQGLEWIGLIDPSDNYTNYNQNFKGKATLTVDTSSSTAYMQLGSLTSEDSAVYYCASYDGYSTPSAMDYWGQGTSVTVSS
VL: QIVLSQSPAILSASPGEKVTMTCRASSSVNYMHWYQQKPGSSPKPWIYATSNLASGVPARFSGSGSGTSYSLIISRVEAEDAAAYYCQQWSSYPPTFGGGTKLEIK
